These results are taken from patent US20170189529A1 (CONTRAFECT, published 2017).

The target in assay [1] is recombinant HA of influenza B virus B/Mass/12 (Yamagata clade) (influenza B virus B/Mass/12 (Yamagata …)). Briefly: recombinant HA ELISA (AttoPhos fluorescence, mean of triplicates). On the technique in general: In an ELISA, binding on a coated surface is turned into a signal by an enzyme label.
Assay [2] deals with recombinant HA of influenza B virus B/Brisbane/08 (Victoria clade) (influenza B virus B/Brisbane/08 …). The description is as above.
In assay [3] the target is recombinant HA of influenza B virus B/Wisconsin/10 (Yamagata clade) (influenza B virus B/Wisconsin/10 …). The assay is described as above.
Assay [4] deals with T1, hemagglutinin (HA) of influenza B virus B/Florida (Yamagata lineage) (influenza B virus B/Florida/06 …). The assay is described as above.
Assay [5] has as its target T2, hemagglutinin (HA) of influenza B virus B/Malaysia (Victoria lineage) (influenza B virus B/Malaysia/04 …). Described as above.
Assay [6] concerns the target T1, hemagglutinin (HA) of influenza B virus …. Briefly: ForteBio Octet; antigen on the sensor, varying antibody concentrations. On the technique in general: BLI is a label-free optical method that tracks binding on a fibre tip over time.
For assay [7], the target named is T2, hemagglutinin (HA) of influenza B virus …. The assay is described as above.
The target of assay [8] is T1, hemagglutinin (HA) of influenza B virus ….

Where two headings read alike, the source gives them in different places.

B1: TRL845 (antibody, V domains shown)
VH: QVQLVQSGGDLVQPGGSLRLSCAASGFTFSRYSMNWVRQAPGMGLEWVAYISDTSRTIYYADSVKGRFTISRDNAKNSLYLQMKSLRDEDTAVYYCARDPDTPFVRAFDSWGQGTLVTVSS
VL: DIVLTQSPSFLSASVGDRVTITCRASQLISSYFAWYQQKPGKPPKLLIYAASTLQSGVPSRFSGSGSGTQFSLTISSLQPEDFATYYCQQLNSYPPITFGQGTRLEIKR
One may read the Kd as the equilibrium constant for the complex coming apart. Lower therefore signals higher affinity. As for B1, the “fold reactivity over background” value in assay [1], in assay [2], in assay [3], in assay [4] and in assay [5] was 25.6 fold over background throughout. Besides, the dissociation constant Kd in assay [6] is 5.2 nM; in assay [7] it was less than 1 nM; in assay [8], 0.19 nM.

B2: TRL832 (antibody, V domains shown)
VH: QVQLVESGPGLMKPSETLSLTCTVSGGSVSNYYWSWIRQPPGKGLEWIGYVFYSGSSNYNPSLNNPSLKSRVTISIDTSNNQFSLKLSSVTAADTAVYYCARGRVNSGYDWGPNFDSWGQGALVTVSS
VL: DIVLTQAPSVSVSPGQTASITCSGDRLGEKFASWYQQKPGQSPVLVIYEDSKRPSGIPDRFSGSNSGNTATLTISGTQIMDEGDFFCQAWDSSTVVFGGGTKLTVLG
Turning to B2, the “fold reactivity over background” value in assay [1], in assay [2], in assay [3], in assay [4] and in assay [5] was 25.6 fold over background throughout. In addition, the dissociation constant (Kd) is 1.7 nM in assay [6] and 0.2 nM in assay [7].

B3: TRL813 (antibody, V domains shown)
VH: QVQLVESGGGLVQPGGSLRLSCAASGFIFGDFAIHWVRQASGKGLEWVARIRSGLNRFETAYAASVEGRLTISRDDSKSMAYLQMNNVKAEDTAVYLCTYLVGAVGFQHWGQGTLVTVSS
VL: DIVMTQSPSTLSASVGDRVTITCRASQTIYRWLAWYQQKPGKAPKVLIYKASTLESGVPSRFSGSGSGTEFTLAISSLQPDDFATYYCQQYNSFPYRFGQGTKVEIKR
Consider B3, for which the “fold reactivity over background” value in assay [1], in assay [2], in assay [3], in assay [4] and in assay [5] was 25.6 fold over background throughout.

B4: TRL848 (antibody, V domains shown)
VH: QVQLLESGGDVVQPGTSLRLSCAASGFSLWTSGMHWVRQAPGKGLEWVAVMSYDETKKYYADSVRGRFSISRDNSRNTLYLQMNSLRVEDTAVYFCAKPRLDYLDYFHAADSWGQGTLVSVSS
VL: DIVLTQPPSVSVAPGQTATITCGGNYIGSKSVNWYQQRPGHAPVLVVYDDSDRPSGIPDRFSGSNSRSTATTATLTISRVEAGDEADYYCQVWETSEDLWVFGGGTKLTVLG
Regarding B4, the “fold reactivity over background” value in assay [1], in assay [2], in assay [3], in assay [4] and in assay [5] was 25.6 fold over background each time. Also, the results for the Kd in assay [6], in assay [7] and in assay [8] were 3.9 nM, less than 1 nM and 1.7 nM, respectively.

B5: TRL842 (antibody, V domains shown)
VH: B4 VH
VL: B4 VL
Regarding B5, the “fold reactivity over background” value in assay [1], in assay [2], in assay [3], in assay [4] and in assay [5] was 25.6 fold over background in each case. In addition, the Kd is 2.5 nM in assay [6] and less than 1 nM in assay [7].

B6: TRL809 (antibody, V domains shown)
VH: QVQLLESGGGVVRPGRSLRLACAGSGFTFSAYAMHWVRQAPGKGLEWVAHTSYDGRDSYYVDSVKGRFTISRDDSKNTLYLQMNSLRPEDTAVYYCAKVGPYTGYDDYNYYGMDVWGHGTTVTVSS
VL: DIVLTQSPVSLAVSLGESATVNCKSSQSVLSNSKNLNYLAWYQHKPGQPPKLLIYWASTRESGVPDRFSGSGSGTDFTLTISSLQAEDVAVYYCQQHYSIPLTFGPGTKVDIKR
On to B6, for which the “fold reactivity over background” value in assay [1], in assay [2], in assay [3], in assay [4] and in assay [5] was 25.6 fold over background each time. Also, the Kd in assay [6] stood at 0.18 nM; in assay [7], 0.2 nM.

B7: TRL812 (antibody, V domains shown)
VH: QVQLVQSGGGVVQPGRSLRLSCAASGFNFSSYGMHWVRQAPGKGLEWLSVIWSGGSNKYYADSVKGRFTISRDDSKNTVYLQMNSLRDEDTAVYYCARAHTALTRFRWLDPWGQGILVTVSS
VL: DIVMTQSPATLSVSPGEGATLSCRASQGIGSNLAWYQHKPGQAPRLLIYAASTRATGVPARFSGSGSGTEFTLTISSLQSEDLAVYFCQQYNTWPLTFGGGTKVEIIR
For B7, the “fold reactivity over background” value in assay [1], in assay [2], in assay [3], in assay [4] and in assay [5] was 25.6 fold over background in each case.

B8: TRL847 (antibody, V domains shown)
VH: QVQLVESGGGLVQPGGSLRLSCVASGFTFSRFSMNWVRQAPGMGLEWVSYISDTGRTIYYADSVKGRFTISRDNDKNTLYLQMKSLRDEDSAFYYCARDPDTPFVRAFDSWGQGVLVTVSS
VL: DIVMTQSPSFLSASVGDRVTITCRTSQVISSYLAWYQQRPGKAPKLLIYAASTLQSGVPSRFSGSGSGTRFSLTISNLQPEDFATYFCQQLTTYPPITFGQGTRLEIKR
As to B8, the “fold reactivity over background” value in assay [1], in assay [2], in assay [3], in assay [4] and in assay [5] was 25.6 fold over background throughout. In addition, the dissociation constant (Kd) was 0.7 nM in assay [6] and less than 1 nM in assay [7].

B9: TRL856 (antibody, V domains shown)
VH: QVQLVESGGGLVQPGGSLRLSCAASGFTFSDYWMVWVRQAPGKGLVWVSRISSDGSTTSYADSVKGPFTISRDNAKNTLYLQMNSLRAEDTAVYYCARVATPYYYESGFDYWGQGALVTVSS
VL: DIVLTQSPSVSVAPGQTARITCGGNDIGSKSVHWYQQKPGQAPVLVVFDDRDRPSGIPERFSGSNSGNTATLTISRVEAGDEADYYCQVWDITSDLVVFGGGTKLTVVG
Turning to B9, the “fold reactivity over background” value stood at 25.6 fold over background in assay [1]; 24.1 fold over background in assay [2]; 25.6 fold over background in assay [3]; 25.6 fold over background in assay [4]; 25.6 fold over background in assay [5].

B10: TRL849 (antibody, V domains shown)
VH: QVQLVESGPGLVKPSQTLSLTCTVSGGSISNGGYHWSWIRQHPGKGLEWIGNIYYRGSTFYDPSLKSRVTISVDTSKSQFSLKLTSVTAADTAVYYCARMPLANYDLLTGLYIGAFDLWGQGTMVTVSS
VL: DIVLTQSPATLSVSPGERATLSCRASQSVNRNLAWFQQIPGQAPRLLIFDASTRAADIPARFSGGGSGAEFTLTVSSLQPEDFAVYYCQQYDKWPPGFGQGTKVEIKR
As for B10, the “fold reactivity over background” value in assay [1], in assay [2], in assay [3], in assay [4] and in assay [5] was 25.6 fold over background in each case. The results for the Kd in assay [6] and in assay [7] were 0.2 nM and less than 1 nM, respectively.

B11: TRL841 (antibody, V domains shown)
VH: QVQLVESGGGVVQPGRSLRLSCAASGFTFSSYGIYWVRQAPGKGLEWVAFISYDEINKFYADSVKGRFTISRDNSKNTVFLQMNSLRDEDTAVYYCAKPLRGSYRYFDLWGRGTVVTVSS
VL: DIVMTQPPATLSVSPGERATLSCGASQGLGSNLAWYQQKPGQAPRLLIYAASTRATGITARFSGSGSGTEFTLTINSLQSEDFALYYCQQYTYWPLTFGGGTKVEIKR
Consider B11, for which the “fold reactivity over background” value in assay [1], in assay [2], in assay [3], in assay [4] and in assay [5] was 25.6 fold over background each time.
